Molecular target: the molecule itself
Assay: SDS-PAGE of SDS-resistant dimers and oligomers

| Protein | binding result |
| --- | --- |
| AQRILIFLLEFLLDFCTGEDSVDGKKRQRHSGLTEQTYSALPEPKAT (domain or fragment) [MBP-Agno (25–71)] | binds |
| MBP-Agno Ala(34–36) (natural protein) MVLRQLSRKASVKVSKTWSGTKKRAQRILIFLLAAALDFCTGEDSVDGKKRQRHSGLTEQTYSALPEPKAT | binds |
| MBP-Agno (17–71) (domain or fragment) TWSGTKKRAQRILIFLLEFLLDFCTGEDSVDGKKRQRHSGLTEQTYSALPEPKAT | binds |
| ILIFLLEFLLDFCTGEDSVDGKKRQRHSGLTEQTYSALPEPKAT (domain or fragment) [MBP-Agno (28–71)] | binds |

Reference: article PMC3777628 (Virology, 2013)
